Test results: PMC7913699 (Nucleic Acids Research, 2021)

How the values were obtained:
[1] = target: the molecule itself; test: crystal structure
[2] = target: T1, RcsB wild-type (Salmonella Typhimurium, UniProt P58663 1-216); test: EMSA
T1 sequence: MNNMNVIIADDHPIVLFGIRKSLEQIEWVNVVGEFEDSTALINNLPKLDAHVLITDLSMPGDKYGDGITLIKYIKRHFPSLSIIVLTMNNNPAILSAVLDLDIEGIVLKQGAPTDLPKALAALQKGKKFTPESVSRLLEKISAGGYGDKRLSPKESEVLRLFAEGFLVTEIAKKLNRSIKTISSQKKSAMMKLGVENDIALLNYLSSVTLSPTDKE

[3] = target: T1, RcsB wild-type; test: EMSA; remark: listed apart in the source
[4] = target: T1, RcsB wild-type; test: crystal structure
[5] = target: T1, RcsB wild-type; test: EMSA; remark: listed apart in the source
[6] = target: T2, RcsB-L108A (Salmonella Typhimurium, UniProt P58663 1-216, L108A); test: EMSA
T2 sequence: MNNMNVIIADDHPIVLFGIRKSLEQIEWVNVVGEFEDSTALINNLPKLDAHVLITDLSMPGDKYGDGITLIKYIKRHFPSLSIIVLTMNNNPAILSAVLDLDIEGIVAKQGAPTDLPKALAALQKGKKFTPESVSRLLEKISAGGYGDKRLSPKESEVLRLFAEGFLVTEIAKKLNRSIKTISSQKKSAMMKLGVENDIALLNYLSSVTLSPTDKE

B1: RcsB from S. Typhimurium, full-length wild-type, bound to phosphomimetic BeF3- (natural protein, UniProt P58663 1-216, looked up)
chain: MNNMNVIIADDHPIVLFGIRKSLEQIEWVNVVGEFEDSTALINNLPKLDAHVLITDLSMPGDKYGDGITLIKYIKRHFPSLSIIVLTMNNNPAILSAVLDLDIEGIVLKQGAPTDLPKALAALQKGKKFTPESVSRLLEKISAGGYGDKRLSPKESEVLRLFAEGFLVTEIAKKLNRSIKTISSQKKSAMMKLGVENDIALLNYLSSVTLSPTDKE
modifications: phosphomimetic BeF3- bound in the active site (phosphorylatable residue D56)
With B1 the “stoichiometry N” value [1] was 2.

B2: nlpD (dsDNA)
DNA 1: ACCTTTCGGAATATTCCCATACT
DNA 2: AGTATGGGAATATTCCGAAAGGT
B2: binds [2].

B3: P1flhDC second AGA to AGG (dsDNA)
DNA 1: CGAATTAGGAAAAACCTTAGGCG
DNA 2: CGCCTAAGGTTTTTCCTAATTCG
B3: binds [3].

B4: PrprA (dsDNA)
DNA 1: CCTATTGAGACGAATCTGATCGG
DNA 2: CCGATCAGATTCGTCTCAATAGG
B4: binds [4].

B5: osmB (dsDNA)
DNA 1: CTCTCTAAGACTTTTCTGACATC
DNA 2: GATGTCAGAAAAGTCTTAGAGAG
B5: binds [2].

B6: ytfK (dsDNA)
DNA 1: GATGTTTAGATAATTCTGAATAA
DNA 2: TTATTCAGAATTATCTAAACATC
B6: binds [2].

B7: P1flhDC first GGA to AGA (dsDNA)
DNA 1: CGAATTAAGAAAAATCTTAGGCG
DNA 2: CGCCTAAGATTTTTCTTAATTCG
B7: binds [5].

B8: flgA (dsDNA)
DNA 1: GTTAATAAGAATATTCCCATCAG
DNA 2: CTGATGGGAATATTCTTATTAAC
B8: binds [2].

B9: P1flhDC (dsDNA)
DNA 1: CGAATTAGGAAAAATCTTAGGCG
DNA 2: CGCCTAAGATTTTTCCTAATTCG
B9: no binding [6].
